The source of these data is patent US20110045534A1.

Values joined by “and” are separate entries in the source; they are usually repeats but may differ in a detail not shown here. Equal values may be shown once.

B1: anti-MRPL11 rabbit IgG expressed from the H-2A-L cassette (antibody)
heavy: QSVEESGGRLVKPDETLTITCTVSGIDLNNNAMGWVRQAPGEGLEYIGFIGGSGATYYSTWAKGRFTISKSSTTVDLMITSPTTEDTATYFCARYAGSGSFDFSGPGTLVTVSLGQPKAPSVFPLAPCCGDTPSSTVTLGCLVKGYLPEPVTVTWNSGTLTNGVRTFPSVRQSSGLYSLSSVVSVTSSSQPVTCNVAHPATNTKVDKTVAPSTCSKPTCPPPELLGGPSVFIFPPKPKDTLMISRTPEVTCVVVDVSQDDPEVQFTWYINNEQVRTARPPLREQQFNSTIRVVSTLPIAHQDWLRGKEFKCKVHNKALPAPIEKTISKARGQPLEPKVYTMGPPREELSSRSVSLTCMINGFYPSDISVEWEKNGKAEDNYKTTPAVLDSDGSYFLYSKLSVPTSEWQRGDVFTCSVMHEALHNHYTQKSISRSPGKEGRGSLLTCGDVEENPG
light: QVLTQTPSPVSAAVGNTVTINCQASQSVRDNNYLSWYQQKPGQPPKLLIYRASTLESGVPSRFKGNGSGTQFTLTISDLECDDAATYYCQGGYGGNFFPFGGGTEVVVKGDPVAPTVLIFPPAADQVATGTVTIVCVANKYFPDVTVTWEVDGTTQTTGIENSKTPQNSADCTYNLSSTLTLTSTQYNSHKEYTCKVTQGTTSVVQSFNRGDC
B2: anti-MRPL11 rabbit IgG expressed from two separate vectors (H + L positive control) (antibody)
heavy: QSVEESGGRLVKPDETLTITCTVSGIDLNNNAMGWVRQAPGEGLEYIGFIGGSGATYYSTWAKGRFTISKSSTTVDLMITSPTTEDTATYFCARYAGSGSFDFSGPGTLVTVSLGQPKAPSVFPLAPCCGDTPSSTVTLGCLVKGYLPEPVTVTWNSGTLTNGVRTFPSVRQSSGLYSLSSVVSVTSSSQPVTCNVAHPATNTKVDKTVAPSTCSKPTCPPPELLGGPSVFIFPPKPKDTLMISRTPEVTCVVVDVSQDDPEVQFTWYINNEQVRTARPPLREQQFNSTIRVVSTLPIAHQDWLRGKEFKCKVHNKALPAPIEKTISKARGQPLEPKVYTMGPPREELSSRSVSLTCMINGFYPSDISVEWEKNGKAEDNYKTTPAVLDSDGSYFLYSKLSVPTSEWQRGDVFTCSVMHEALHNHYTQKSISRSPGK
light: B1 light
B3: anti-MRPL11 rabbit IgG expressed from the L-2A-H cassette (antibody)
light: QVLTQTPSPVSAAVGNTVTINCQASQSVRDNNYLSWYQQKPGQPPKLLIYRASTLESGVPSRFKGNGSGTQFTLTISDLECDDAATYYCQGGYGGNFFPFGGGTEVVVKGDPVAPTVLIFPPAADQVATGTVTIVCVANKYFPDVTVTWEVDGTTQTTGIENSKTPQNSADCTYNLSSTLTLTSTQYNSHKEYTCKVTQGTTSVVQSFNRGDCEGRGSLLTCGDVEENPG
heavy: B2 heavy

The target of one assay is immunizing peptide for ERK2p. Briefly: ELISA on coated peptide; supernatant 1/10. Background: An ELISA detects its analyte on a solid surface through an enzyme-linked reagent.
As for B1, the absorbance (OD 450 nm) was 0.0478 OD450 and 0.0482 OD450.

As to B2, the absorbance (OD 450 nm) came out at 0.0629 OD450.

For B3, the absorbance (OD 450 nm) is 0.0621 OD450 and 0.0483 OD450.

The target in a further assay is immunizing peptide for SUZ12. Briefly: ELISA on coated peptide; supernatant 1/10.
Take B1: the absorbance (OD 450 nm) was 0.0461 OD450 and 0.0445 OD450.

B2: the absorbance (OD 450 nm) was 0.0485 OD450.

As to B3, the absorbance (OD 450 nm) was 0.0486 OD450 and 0.0529 OD450.

The target in the next assay is immunizing peptide for MRPL11. Description: ELISA on coated peptide; supernatant 1/10.
As to B1, the absorbance (OD 450 nm) is 0.972 OD450 and 1.04 OD450.

Consider B2, for which the absorbance (OD 450 nm) worked out at 1.01 OD450.

Take B3: the absorbance (OD 450 nm) was 1.14 OD450 and 0.99 OD450.

The next assay concerns the target immunizing peptide for ERK2p. Description: ELISA on coated peptide; supernatant 1x.
Take B1: the absorbance (OD 450 nm) was 0.0534 OD450 and 0.0524 OD450.

B2: the absorbance (OD 450 nm) was 0.0575 OD450.

As for B3, the absorbance (OD 450 nm) was 0.0663 OD450 and 0.0671 OD450.

A further assay concerns the target immunizing peptide for SUZ12. Briefly: ELISA on coated peptide; supernatant 1x.
Regarding B1, the absorbance (OD 450 nm) was 0.0487 OD450 and 0.0489 OD450.

On to B2, for which the absorbance (OD 450 nm) turned out to be 0.0474 OD450.

As to B3, the absorbance (OD 450 nm) is 0.0542 OD450 and 0.0585 OD450.

The target in another assay is immunizing peptide for MRPL11. Briefly: ELISA on coated peptide; supernatant 1x.
Regarding B1, the absorbance (OD 450 nm) was 1.01 OD450 and 1.06 OD450.

For the molecule B2, the absorbance (OD 450 nm) was determined as 0.971 OD450.

With B3, the absorbance (OD 450 nm) was 0.973 OD450 and 0.998 OD450.
